What was measured:
human CD137 on cells = human CD137 on cells (UniProt Q07011 24-255); assay: FACS binding CHO-K1/human CD137 cells
human 5T4 on cells = target: T1, human 5T4 on cells (UniProt Q13641 32-420); assay: FACS binding CT26 human 5T4 cells; CT26 cells
T1 chain: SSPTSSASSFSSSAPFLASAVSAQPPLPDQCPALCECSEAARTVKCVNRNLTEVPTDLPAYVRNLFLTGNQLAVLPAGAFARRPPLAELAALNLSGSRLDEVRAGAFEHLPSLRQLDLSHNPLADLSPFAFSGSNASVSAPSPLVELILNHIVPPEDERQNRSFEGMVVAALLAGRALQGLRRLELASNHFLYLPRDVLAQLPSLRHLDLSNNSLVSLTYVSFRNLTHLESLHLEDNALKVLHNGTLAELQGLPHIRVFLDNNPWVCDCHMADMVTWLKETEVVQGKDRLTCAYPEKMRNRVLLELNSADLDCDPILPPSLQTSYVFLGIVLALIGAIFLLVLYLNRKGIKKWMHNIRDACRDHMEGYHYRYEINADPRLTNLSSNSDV

cynomolgus 5T4 on cells = target: T2, cynomolgus 5T4 on cells (cynomolgus macaque, UniProt Q4R8Y9 35-420); assay: FACS binding CHO-K1/cynomolgus 5T4 cells
T2 chain: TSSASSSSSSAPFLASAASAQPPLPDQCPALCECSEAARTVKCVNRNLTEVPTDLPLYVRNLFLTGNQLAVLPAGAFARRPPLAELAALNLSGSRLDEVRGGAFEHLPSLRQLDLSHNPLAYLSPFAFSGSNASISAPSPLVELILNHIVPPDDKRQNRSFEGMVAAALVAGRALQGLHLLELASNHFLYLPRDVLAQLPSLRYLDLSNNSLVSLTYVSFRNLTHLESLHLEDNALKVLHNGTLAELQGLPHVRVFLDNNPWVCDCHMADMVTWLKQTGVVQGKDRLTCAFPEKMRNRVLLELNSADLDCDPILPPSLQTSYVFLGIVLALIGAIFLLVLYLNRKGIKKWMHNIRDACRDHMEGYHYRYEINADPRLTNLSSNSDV

Chain of human CD137 on cells (Q07011 24-255): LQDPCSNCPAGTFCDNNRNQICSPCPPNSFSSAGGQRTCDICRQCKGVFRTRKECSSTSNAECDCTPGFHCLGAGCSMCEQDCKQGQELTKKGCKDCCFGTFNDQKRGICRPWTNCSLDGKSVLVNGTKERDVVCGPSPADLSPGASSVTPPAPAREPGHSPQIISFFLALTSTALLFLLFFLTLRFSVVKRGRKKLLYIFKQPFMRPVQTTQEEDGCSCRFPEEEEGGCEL

- EC50 (human CD137 on cells): 0.39 nM
- EC50 (human 5T4 on cells): 1.5 nM
- EC50 (cynomolgus 5T4 on cells): 6.5 nM
B1: ALG.APV-004 (bispecific antibody)
chain 1: EVQLLESGGGLVQPGGSLRLSCAASGFTFSYGSMYWVRQAPGKGLEWVSSISSGSGSTYYADSVKGRFTISRDNSKNTLYLQMNSLRAEDTAVYYCARSSYYGSYYSIDYWGQGTLVTVSSEVQLLESGGGLVQPGGSLRLSCAASGFTFSSYAMSWVRQAPGKCLEWVSAISGSGGSTYYADSVKGRFTISRDNSKNTLYLQMNSLRAEDTAVYYCARYYGGYYSAWMDYWGQGTLVTVSSDIQMTQSPSSLSASVGDRVTITCRASQSISSYLNWYQQKPGKAPKLLIYAASSLQSGVPSRFSGSGSGTDFTLTISSLQPEDFATYYCQQTYGYLHTFGCGTRLEIK
chain 2: DIQMTQSPSSLSASVGDRVTITCRASQSISSYLNWYQQKPGKAPKLLIYAASSLQSGVPSRFSGSGSGTDFTLTISSLQPEDFATYYCQQYYDNLPTFGQGTKLEIK
